Values of other authors, collected in patent US8071839B2, “Transgenic mouse comprising a polynucleotide encoding human or humanized C5aR and methods of production and use” (G2 Inflammation Pty Ltd, priority 2003, dated 2011).

T1: C5aR (Homo sapiens, UniProt P21730)
T1 sequence (P21730 1-350): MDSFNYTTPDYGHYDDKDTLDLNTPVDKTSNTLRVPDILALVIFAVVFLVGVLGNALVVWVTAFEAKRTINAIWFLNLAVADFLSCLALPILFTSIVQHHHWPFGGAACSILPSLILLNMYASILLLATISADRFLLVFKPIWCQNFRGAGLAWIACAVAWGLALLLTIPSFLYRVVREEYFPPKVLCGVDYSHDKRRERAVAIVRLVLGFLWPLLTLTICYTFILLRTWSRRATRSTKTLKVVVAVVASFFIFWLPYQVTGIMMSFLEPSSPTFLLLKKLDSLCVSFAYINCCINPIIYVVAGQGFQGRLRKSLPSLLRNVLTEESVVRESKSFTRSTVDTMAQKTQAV

B1: C5a: anaphylatoxin fragment of complement protein C5, natural ligand of C5aR (protein, UniProt P01031 678-751, looked up)
C5a anaphylatoxin: TLQKKIEEIAAKYKHSVVKKCCYDGACVNNDETCEQRAARISLGPRCIKAFTECCVVASQLRANISHKDMQLGR
modifications: C5a anaphylatoxin
notes: anaphylatoxin fragment of complement protein C5, natural ligand of C5aR
B2: murine C5a: mouse C5a, ligand that binds human C5aR (protein, UniProt P06684 679-755, looked up)
C5a anaphylatoxin: NLHLLRQKIEEQAAKYKHSVPKKCCYDGARVNFYETCEERVARVTIGPLCIRAFNECCTIANKIRKESPHKPVQLGR
modifications: C5a anaphylatoxin

How the values were obtained:
C5aR [1] = biological target: T1, C5aR; conditions: read-out: Kd of C5aR for C5a
C5aR [2] = biological target: T1, C5aR

| Molecule | Kd (C5aR [1]) | binding affinity for human C5aR (C5aR [2]) |
| --- | --- | --- |
| B1 | ~1 nM | – |
| B2 | – | high affinity |
